Assay results taken from patent US20050053990.

Experiments:
Assay in all cases: cleavage_in_vitro
AvaII = details: DNA strand 100% cleaved; NEBuffer 4 (Mg2+), 37 C, 4 h; Table 1 does not name the oligos
BtsI = details: DNA strand 100% cleaved
Sau3AI = details: DNA strand 0% cleaved
SfaNI = details: DNA strand 100% cleaved
Cac8I = details: DNA strand 100% cleaved; NEBuffer 3, 37 C, 4 h; Table 1 does not name the oligos

“AAAGCUAAGCGGACCGAGUCGACUGCAUCGUCAUGAAAAAA / TTTTTTCATGACGATGCAGTCGACTCGGTCCGCTTAGCTTT [A/B RNA/DNA duplex]” gave an activity (% RNA strand cleaved) (AvaII) of 100.
For BtsI site RNA/DNA duplex, the activity (% RNA strand cleaved) (BtsI) was 70.
Sau3AI site RNA/DNA duplex gave an activity (% RNA strand cleaved) (Sau3AI) of 80.
SfaNI site RNA/DNA duplex gave an activity (% RNA strand cleaved) (SfaNI) of 100.
With “UAAAGGCGCGCCCGCAUGCUUUA / TAAAGCATGCGGGCGCGCCTTTA [I/L RNA/DNA duplex]” the activity (% RNA strand cleaved) (Cac8I) was 100.
